Measurements reported in patent publication US20240132626A1 (Eli Lilly, published 2024).

Experiments:
Test in all cases: SPR, captured via anti-human kappa, soluble ECD injected
[1] = molecular target: T1, Soluble human HER-2 extracellular domain (ECD) protein (human, UniProt P04626 23-652)
T1 construct: extracellular domain; His-tagged

[2] = molecular target: T2, Soluble human EGFR ECD protein (human, UniProt P00533 25-645)
T2 construct: extracellular domain; His-tagged

[3] = molecular target: T3, Soluble human cMet extracellular domain (ECD) protein (human, UniProt P08581 25-932)
T3 construct: extracellular domain; His-tagged
T3 sequence (P08581 25-932): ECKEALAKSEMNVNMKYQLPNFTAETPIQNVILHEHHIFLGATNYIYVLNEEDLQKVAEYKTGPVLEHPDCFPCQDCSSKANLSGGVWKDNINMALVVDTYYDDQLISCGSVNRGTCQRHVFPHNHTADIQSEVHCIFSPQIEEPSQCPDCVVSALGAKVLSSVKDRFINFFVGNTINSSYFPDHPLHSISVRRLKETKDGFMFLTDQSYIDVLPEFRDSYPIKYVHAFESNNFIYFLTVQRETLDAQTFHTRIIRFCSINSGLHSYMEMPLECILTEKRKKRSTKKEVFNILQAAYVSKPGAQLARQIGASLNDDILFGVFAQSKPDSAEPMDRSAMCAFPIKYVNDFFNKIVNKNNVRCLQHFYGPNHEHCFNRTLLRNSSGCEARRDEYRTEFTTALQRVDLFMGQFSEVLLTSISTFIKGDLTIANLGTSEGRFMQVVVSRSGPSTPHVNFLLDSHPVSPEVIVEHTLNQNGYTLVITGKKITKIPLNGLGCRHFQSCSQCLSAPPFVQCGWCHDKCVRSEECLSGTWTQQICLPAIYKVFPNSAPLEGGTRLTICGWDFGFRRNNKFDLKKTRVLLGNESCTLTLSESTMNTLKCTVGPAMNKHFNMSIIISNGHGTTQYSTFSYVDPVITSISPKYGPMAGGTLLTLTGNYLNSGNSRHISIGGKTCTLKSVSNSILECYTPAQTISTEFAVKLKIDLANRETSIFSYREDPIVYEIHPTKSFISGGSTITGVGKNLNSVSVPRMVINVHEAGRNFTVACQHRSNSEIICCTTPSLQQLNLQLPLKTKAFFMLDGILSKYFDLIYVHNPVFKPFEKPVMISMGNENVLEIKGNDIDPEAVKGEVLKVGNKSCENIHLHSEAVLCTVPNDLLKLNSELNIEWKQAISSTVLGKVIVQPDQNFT

Kd [1]	koff [1]	kon [1]	Kd [2]	koff [2]	kon [2]	Kd [3]	koff [3]	kon [3]	Binder
0.8 nM	0.00039 s⁻¹	520000 M⁻¹ s⁻¹	4.5 nM	0.0086 s⁻¹	1.9e+06 M⁻¹ s⁻¹	0.69 nM	0.00025 s⁻¹	360000 M⁻¹ s⁻¹	HER-2 X EGFR X cMet TsAb_C_L (other, Trispecific IgG-Fab antibody; the anti-cMet Fab is tethered through its light chain only at the C-terminus of HC2) heavy 1: EVQLVESGGGLVQPGGSLRLSCAASGFTFTDYTMDWVRKAPGKGLEWVADVNPNSGGSIYNQEFKGRFTLSVDRSKNTLYLQMNSLRAEDTAVYYCARNLGPSFYFDYWGQGTLVTVSSASTKGPSVFPLAPSSKSTSGGTAALGCLVKDYFPEPVTVSWNSGALTSGVATGPAVLQSSGLYSLSSVVTVPSSSLGTQTYICNVNHKPSNTKVDKKVEPKSCDKTHTCPPCPAPEAAGGPSVFLFPPKPKDTLMISRTPEVTCVVVDVSHEDPEVKFNWYVDGVEVHNAKTKPREEQYQSTYRVVSVLTVLHQDWLNGKEYKCKVSNKALPAPIEKTISKAKGQPREPQVSTLPPSREEMTKNQVSLMCLVYGFYPSDIAVEWESNGQPENNYKTTPPVLDSDGSFFLYSVLTVDKSRWQQGNVFSCSVMHEALHNHYTQKSLSLSPG light 1: RIQMTQSPSSLSASVGDRVTITCKASQDVSIGVAWYQDKPGKAPKLLIYSASYRYTGVPSRFSGSGSGTDFTLTISSLQPEDFATYYCQQYYIYPYTFGQGTKVEIKGQPKAAPSVTLFPPSSEELQANKATLVCYISDFYPGAVTVAWKADSSPVKAGVETTTPSKQSNNKYAAWSYLSLTPEQWKSHRSYSCQVTHEGSTVEKTVAPTEC EVQLVESGGGLVQPGGSLRLSCAASGYTFTSYWLHWVRQAPGKGLEWVGMIDPSNSDTRFNPNFKDRFTISADTSKNTAYLQMNSLRAEDTAVYYCATYRSYVTPLDYWGRGTLVTVSSASTKGPSVFPLAPSSKSTSGGTAALGCLVADYFPEPVTVSWNSGALTSGVHTFPAVLQSSGLYSLSSVVTVPSSSLGTQTYICNVNHKPSNTKVDERVEPKSC heavy 2: QVQLVQSGAEVKKPGASVKVSCKASGYTFTSHWMHWVRYAPGQGLEWIGEFNPSNGRTNYNEKFKSKATMTVDTSTNTAYMELSSLRSEDTAVYYCASRDYDYDGRYFDYWGQGTLVTVSSASTKGPSVFPLAPCSKSTSGGTAALGCLVKDYFPEPVTVSWNSGALTSGVHTFPAVLQSSGLYSLSSVVTVPSSSLGTQTYICNVNHKPSNTKVDKKVEPDSGDKTHTCPPCPAPEAAGGPSVFLFPPKPKDTLMISRTPEVTCVVVDVSHEDPEVKFNWYVDGVEVHNAKTKPREEQYQSTYRVVSVLTVLHQDWLNGKEYKCKVSNKALPAPIEKTISKAKGQPREPQVYTLPPSRGDMTKNQVQLTCLVKGFYPSDIAVEWESNGQPENNYKTTPPVLDSDGSFFLASKLTVDKSRWQQGNVFSCSVMHEALHNHYTQKSLSLSPGKGGGGSGGGGSGGGGSGGGGSDIQMTQSPSSLSASVGDRVTITCKSSQSLLYTSSQKNYLAWYQQKPGDAPKLLIYWASTRESGVPSRFSGSGSGTDFTLTISSLQPEDFATYYCQQYYAYPWTFGQGTKVEIKRTVAAPSVFIFPPSDKQLKSGTARVVCLLNNFYPREAKVQWKVDNALQSGNSQESVTEQDSKDSTYSLISTLTLSKADYEKHKVYACEVTHQGLSSPVTKSFNRGEC light 2: DIQMTQSPSSLSASVGDRVTITCSASSSVTYMYWYQRKPGKAPKLLIYDTSNLASGVPSRFSGSGSGTDYTFTISSLQPEDIATYYCQQWSSHIFTFGQGTKVEIKRTVAAPSVFIFPPSKEQLKSGTASVVCLLNNFYPREAKVQWKVDNALQSGNSQESVTEQDSKDSTYSLSSTLTLSKADYEKHKVYACEVTHQGLSSPVTKSFNRGEC
0.9 nM	0.00024 s⁻¹	260000 M⁻¹ s⁻¹	13 nM	0.009 s⁻¹	720000 M⁻¹ s⁻¹	0.36 nM	0.00016 s⁻¹	440000 M⁻¹ s⁻¹	HER-2 X EGFR X cMet TsAb_N_L (other, Trispecific IgG-Fab antibody; the anti-cMet Fab is fused N-terminally through its light chain) heavy 1: DIQMTQSPSSLSASVGDRVTITCKSSQSLLYTSSQKNYLAWYQQKPGDAPKLLIYWASTRESGVPSRFSGSGSGTDFTLTISSLQPEDFATYYCQQYYAYPWTFGQGTKVEIKRTVAAPSVFIFPPSDKQLKSGTARVVCLLNNFYPREAKVQWKVDNALQSGNSQESVTEQDSKDSTYSLISTLTLSKADYEKHKVYACEVTHQGLSSPVTKSFNRGECGGGGSGGGGSGGGGSGGGGSGGGGSQVQLVQSGAEVKKPGASVKVSCKASGYTFTSHWMHWVRYAPGQGLEWIGEFNPSNGRTNYNEKFKSKATMTVDTSTNTAYMELSSLRSEDTAVYYCASRDYDYDGRYFDYWGQGTLVTVSSASTKGPSVFPLAPCSKSTSGGTAALGCLVKDYFPEPVTVSWNSGALTSGVHTFPAVLQSSGLYSLSSVVTVPSSSLGTQTYICNVNHKPSNTKVDKKVEPDSGDKTHTCPPCPAPEAAGGPSVFLFPPKPKDTLMISRTPEVTCVVVDVSHEDPEVKFNWYVDGVEVHNAKTKPREEQYQSTYRVVSVLTVLHQDWLNGKEYKCKVSNKALPAPIEKTISKAKGQPREPQVYTLPPSRGDMTKNQVQLTCLVKGFYPSDIAVEWESNGQPENNYKTTPPVLDSDGSFFLASKLTVDKSRWQQGNVFSCSVMHEALHNHYTQKSLSLSPG light 1: DIQMTQSPSSLSASVGDRVTITCSASSSVTYMYWYQRKPGKAPKLLIYDTSNLASGVPSRFSGSGSGTDYTFTISSLQPEDIATYYCQQWSSHIFTFGQGTKVEIKRTVAAPSVFIFPPSKEQLKSGTASVVCLLNNFYPREAKVQWKVDNALQSGNSQESVTEQDSKDSTYSLSSTLTLSKADYEKHKVYACEVTHQGLSSPVTKSFNRGEC heavy 2: EVQLVESGGGLVQPGGSLRLSCAASGFTFTDYTMDWVRKAPGKGLEWVADVNPNSGGSIYNQEFKGRFTLSVDRSKNTLYLQMNSLRAEDTAVYYCARNLGPSFYFDYWGQGTLVTVSSASTKGPSVFPLAPSSKSTSGGTAALGCLVKDYFPEPVTVSWNSGALTSGVATGPAVLQSSGLYSLSSVVTVPSSSLGTQTYICNVNHKPSNTKVDKKVEPKSCDKTHTCPPCPAPEAAGGPSVFLFPPKPKDTLMISRTPEVTCVVVDVSHEDPEVKFNWYVDGVEVHNAKTKPREEQYQSTYRVVSVLTVLHQDWLNGKEYKCKVSNKALPAPIEKTISKAKGQPREPQVSTLPPSREEMTKNQVSLMCLVYGFYPSDIAVEWESNGQPENNYKTTPPVLDSDGSFFLYSVLTVDKSRWQQGNVFSCSVMHEALHNHYTQKSLSLSPG light 2: RIQMTQSPSSLSASVGDRVTITCKASQDVSIGVAWYQDKPGKAPKLLIYSASYRYTGVPSRFSGSGSGTDFTLTISSLQPEDFATYYCQQYYIYPYTFGQGTKVEIKGQPKAAPSVTLFPPSSEELQANKATLVCYISDFYPGAVTVAWKADSSPVKAGVETTTPSKQSNNKYAAWSYLSLTPEQWKSHRSYSCQVTHEGSTVEKTVAPTEC EVQLVESGGGLVQPGGSLRLSCAASGYTFTSYWLHWVRQAPGKGLEWVGMIDPSNSDTRFNPNFKDRFTISADTSKNTAYLQMNSLRAEDTAVYYCATYRSYVTPLDYWGRGTLVTVSSASTKGPSVFPLAPSSKSTSGGTAALGCLVADYFPEPVTVSWNSGALTSGVHTFPAVLQSSGLYSLSSVVTVPSSSLGTQTYICNVNHKPSNTKVDERVEPKSC
1.1 nM	0.00026 s⁻¹	230000 M⁻¹ s⁻¹	13 nM	0.0085 s⁻¹	680000 M⁻¹ s⁻¹	0.31 nM	0.00016 s⁻¹	520000 M⁻¹ s⁻¹	HER-2 X EGFR X cMet TsAb_N_H (other, Trispecific IgG-Fab antibody; the anti-cMet Fab is fused N-terminally through its heavy chain fragment) heavy 1: EVQLVESGGGLVQPGGSLRLSCAASGYTFTSYWLHWVRQAPGKGLEWVGMIDPSNSDTRFNPNFKDRFTISADTSKNTAYLQMNSLRAEDTAVYYCATYRSYVTPLDYWGRGTLVTVSSASTKGPSVFPLAPSSKSTSGGTAALGCLVADYFPEPVTVSWNSGALTSGVHTFPAVLQSSGLYSLSSVVTVPSSSLGTQTYICNVNHKPSNTKVDERVEPKSCGGGGSGGGGSGGGGSGGGGSGGGGSQVQLVQSGAEVKKPGASVKVSCKASGYTFTSHWMHWVRYAPGQGLEWIGEFNPSNGRTNYNEKFKSKATMTVDTSTNTAYMELSSLRSEDTAVYYCASRDYDYDGRYFDYWGQGTLVTVSSASTKGPSVFPLAPCSKSTSGGTAALGCLVKDYFPEPVTVSWNSGALTSGVHTFPAVLQSSGLYSLSSVVTVPSSSLGTQTYICNVNHKPSNTKVDKKVEPDSGDKTHTCPPCPAPEAAGGPSVFLFPPKPKDTLMISRTPEVTCVVVDVSHEDPEVKFNWYVDGVEVHNAKTKPREEQYQSTYRVVSVLTVLHQDWLNGKEYKCKVSNKALPAPIEKTISKAKGQPREPQVYTLPPSRGDMTKNQVQLTCLVKGFYPSDIAVEWESNGQPENNYKTTPPVLDSDGSFFLASKLTVDKSRWQQGNVFSCSVMHEALHNHYTQKSLSLSPG light 1: DIQMTQSPSSLSASVGDRVTITCSASSSVTYMYWYQRKPGKAPKLLIYDTSNLASGVPSRFSGSGSGTDYTFTISSLQPEDIATYYCQQWSSHIFTFGQGTKVEIKRTVAAPSVFIFPPSKEQLKSGTASVVCLLNNFYPREAKVQWKVDNALQSGNSQESVTEQDSKDSTYSLSSTLTLSKADYEKHKVYACEVTHQGLSSPVTKSFNRGEC heavy 2: EVQLVESGGGLVQPGGSLRLSCAASGFTFTDYTMDWVRKAPGKGLEWVADVNPNSGGSIYNQEFKGRFTLSVDRSKNTLYLQMNSLRAEDTAVYYCARNLGPSFYFDYWGQGTLVTVSSASTKGPSVFPLAPSSKSTSGGTAALGCLVKDYFPEPVTVSWNSGALTSGVATGPAVLQSSGLYSLSSVVTVPSSSLGTQTYICNVNHKPSNTKVDKKVEPKSCDKTHTCPPCPAPEAAGGPSVFLFPPKPKDTLMISRTPEVTCVVVDVSHEDPEVKFNWYVDGVEVHNAKTKPREEQYQSTYRVVSVLTVLHQDWLNGKEYKCKVSNKALPAPIEKTISKAKGQPREPQVSTLPPSREEMTKNQVSLMCLVYGFYPSDIAVEWESNGQPENNYKTTPPVLDSDGSFFLYSVLTVDKSRWQQGNVFSCSVMHEALHNHYTQKSLSLSPG light 2: RIQMTQSPSSLSASVGDRVTITCKASQDVSIGVAWYQDKPGKAPKLLIYSASYRYTGVPSRFSGSGSGTDFTLTISSLQPEDFATYYCQQYYIYPYTFGQGTKVEIKGQPKAAPSVTLFPPSSEELQANKATLVCYISDFYPGAVTVAWKADSSPVKAGVETTTPSKQSNNKYAAWSYLSLTPEQWKSHRSYSCQVTHEGSTVEKTVAPTEC light 3: DIQMTQSPSSLSASVGDRVTITCKSSQSLLYTSSQKNYLAWYQQKPGDAPKLLIYWASTRESGVPSRFSGSGSGTDFTLTISSLQPEDFATYYCQQYYAYPWTFGQGTKVEIKRTVAAPSVFIFPPSDKQLKSGTARVVCLLNNFYPREAKVQWKVDNALQSGNSQESVTEQDSKDSTYSLISTLTLSKADYEKHKVYACEVTHQGLSSPVTKSFNRGEC
